Paper PMC5299495, “Co‐immobilized Phosphorylated Cofactors and Enzymes as Self‐Sufficient Heterogeneous Biocatalysts for Chemical Processes” (Angewandte Chemie (International Ed. in English), 2016)

Substrate: NC(=O)c1ccc[n+]([C@@H]2O[C@H](COP(=O)(O)OP(=O)(O)OC[C@H]3O[C@@H](n4cnc5c(N)ncnc54)[C@H](O)[C@@H]3O)[C@@H](O)[C@H]2O)c1
Test: steady-state kinetics, soluble enzyme and soluble NAD+
Type: biochemical, [Candida] boidinii
Settings: free enzyme; co-substrate formate

B1: Cb‐FDH ([Candida] boidinii) (protein)
chain: MKIVLVLYDAGKHAADEEKLYGCTENKLGIANWLKDQGHELITTSDKEGETSELDKHIPDADIIITTPFHPAYITKERLDKAKNLKLVVVAGVGSDHIDLDYINQTGKKISVLEVTGSNVVSVAEHVVMTMLVLVRNFVPAHEQIINHDWEVAAIAKDAYDIEGKTIATIGAGRIGYRVLERLLPFNPKELLYYDYQALPKEAEEKVGARRVENIEELVAQADIVTVNAPLHAGTKGLINKELLSKFKKGAWLVNTARGAICVAEDVAAALESGQLRGYGGDVWFPQPAPKDHPWRDMRNKYGAGNAMTPHYSGTTLDAQTRYAEGTKNILESFFTGKFDYRPQDIILLNGEYVTKAYGKHDKK
notes: free soluble enzyme
Km: 85 ± 0.9 µM
